# Tests used:
# [1] = Circular dichroism of Val^8-GLP-1 / GLP-1 secondary structure with bound DSS; type: physicochemical
# From the text: A slightly larger form of Val^8-GLP-1 with DSS molecule(s) bound to it was observed on size-exclusion chromatography (SEC) and the altered secondary structure was noted by circular dichroism experiments (CD).
# [2] = Solution clarity of m-cresol-preserved Val^8-GLP-1 solution with other surfactants, Example 4; type: physicochemical; conditions: m-cresol about 3 mg/ml; for clarity of Val^8-GLP-1 solution with added surfactant: 10 μl surfactant in 500 μL of 1 mg/ml peptide, ambient temperature about 3 hours; for solution appearance: without any additives
# Protocol: A formulation of the invention was prepared by dissolving Val^8-GLP-1(7-37)OH at 1 mg/ml in an aqueous solution containing 16 mg/ml glycerin and 10 mM sodium tribasic phosphate. The solution was adjusted to about pH 8.0 using 2N HCl.
# (§1) The preservative m-cresol was prepared at a concentration of 100 mg/ml in absolute ethanol.
# Various formulation excipients listed herein were added to 500 μL aliquots of the Val^8-GLP-1(7-37)OH solution in 3-ml glass vials. After stirring for about 45 minutes at ambient temperature, 15.8 μl of a 100 mg/ml m-cresol solution in absolute ethanol was added to give a m-cresol concentration of about 3 mg/ml.
# Without any additives, the Val^8-GLP-1 solution becomes hazy at both ambient temperature and at 4° C.
# [3] = Storage stability (solution clarity, HPLC purity) of preserved Val^8-GLP-1(7-37)OH formulation with DSS 2:1, Example 2; type: physicochemical; conditions: for solution appearance: DSS 2:1, m-cresol about 3.15 mg/ml; for HPLC purity after storage: DSS 2:1, m-cresol
# Protocol: A formulation of the invention was prepared by dissolving Val^8-GLP-1(7-37)OH at about 1.0 mg/ml in an aqueous solution containing 16 mg/ml glycerin and 10 mM sodium tribasic phosphate. The solution was adjusted to about pH 8.0 using 5N HCl. The solution was then filtered through 0.2μ and 0.02μ filters. The peptide concentration was quantified by ultraviolet (UV) analysis at 280 nm.
# 6.5 ml of the Val^8-GLP-1 solution was added to 1.62 mg of solid DSS, which had been dried from a 100 mg/ml solution in absolute ethanol, to give a 2:1 molar ratio of DSS to Val^8-GLP-1. After gently stirring 15 minutes at ambient temperature the solution was added to 20.5 mg of m-cresol, which had been dried from a 100 mg/ml solution in absolute ethanol, to give a m-cresol concentration of about 3.15 mg/ml. After stirring 15 minutes at ambient temperature, the solution was adjusted to about pH 7.7 and passed through a 0.2μ filter. Portions of this formulation were stored at 4° C. and at ambient temperature.
# After 18 weeks, the formulations maintained at 4° C. and at ambient temperature were examined. Both solutions were clear.
# [4] = Storage stability (solution clarity, HPLC purity) of m-cresol-preserved Val^8-GLP-1(7-37)OH formulations with DSS, Example 1; type: physicochemical; conditions: for time solution remained clear: 4° C.; for HPLC purity after storage: 6 weeks at 4° C.
# Protocol: A formulation of the invention was prepared by dissolving Val^8-GLP-1(7-37)OH at 1 mg/ml in an aqueous solution containing 16 mg/ml glycerin and 10 mM sodium tribasic phosphate. The solution was adjusted to about pH 8.1 using 1N HCl.
# as §1
# Sodium docusate (DSS) was prepared at a concentration of 20 mg/ml in water with gentle warming on a hot plate.
# To each of 500 μL aliquots of the Val^8-GLP-1(7-37)OH solution in 3-ml glass vials were added 0, 3.3, 6.6 or 16.5 μL of the DSS solution followed by 15.8 μL of the preservative m-cresol solution. After gentle mixing of the components in the vials by hand swirling the pH of each clear solution was-adjusted to pH 7.8. Replicate samples were incubated at 4° C., ambient temperature, and 37° C. Within 4 hours at ambient temperature, the samples containing 0 or 3.3 μL of the DSS solution had become hazy due to peptide denaturation.
# After incubation for 16 hours at 37° C., all four types of samples were clear. The solutions were then incubated at 4° C. Again, the solutions containing 0 or 3.3 μL of the DSS solutions became, and remained, hazy.
# The solutions containing 6.6 μL or 16.5 μL of the DSS solution, which correspond to 2:1 and 10:1 molar ratios DSS to Val^8-GLP-1(7-37)OH, respectively, remained clear at 4° C. for at least 6 weeks.
# [5] = tested on: beagle dogs clamped at an elevated glycemic level (200 mg/dl); assay: Hyperglycemic clamp, glucose infusion rate after subcutaneous injection; type: in vivo; conditions: formulation containing DSS
# Protocol: A portion of the formulation from Example 2 was injected subcutaneously into beagle dogs that were clamped at an elevated glycemic level (200 mg/dl). 3 nmoles/kg of Val^8-GLP-1 were injected into each animal. Glucose infusion rates needed to maintain hyperglycemia were measured for 2.5 hours after the injections and compared to injections of a vehicle control solution.
substance,measurement,setting,value
GLP-1(7-37) (HAEGTFTSDVSSYLEGEAAKEFIAWLVKGRG; listed as Homo sapiens),reversion to alpha-helix conformation,"[1]; GLP-1-DSS mixture, 2-day dialysis, CD study",did not revert
Tween-40,clarity of Val^8-GLP-1 solution with added surfactant,[2],preserved solution clarity
Tween-80,clarity of Val^8-GLP-1 solution with added surfactant,[2],preserved solution clarity
Val^8-GLP-1(7-37)OH,solution appearance,[2]; 4° C.,hazy
same,solution appearance,[2]; ambient temperature,hazy
same,secondary structure upon binding of DSS,[1]; circular dichroism,converted from mostly alpha-helix to mostly a beta sheet
same,solution appearance,"[3]; pH about 7.7, 18 weeks at 4° C.",clear
same,solution appearance,"[3]; pH about 7.7, 18 weeks at ambient temperature",clear
same,HPLC purity after storage,[3]; 18 weeks at 4° C.,98.3%
same,HPLC purity after storage,[3]; 18 weeks at ambient temperature,90.8%
same,solution appearance,"[4]; 0 μL DSS solution, incubated at 4° C. after 16 hours at 37° C.",hazy
same,solution appearance,"[4]; 0 μL DSS solution, m-cresol, pH 7.8, within 4 hours at ambient temperature",hazy
same,solution appearance,"[4]; 3.3 μL DSS solution, incubated at 4° C. after 16 hours at 37° C.",hazy
same,solution appearance,"[4]; 3.3 μL DSS solution, m-cresol, pH 7.8, within 4 hours at ambient temperature",hazy
same,time solution remained clear,[4]; 6.6 μL DSS solution (2:1 molar ratio DSS to peptide),at least 6 weeks
same,HPLC purity after storage,[4]; 6.6 μL DSS solution (2:1 molar ratio),98.3%
same,time solution remained clear,[4]; 16.5 μL DSS solution (10:1 molar ratio DSS to peptide),at least 6 weeks
same,HPLC purity after storage,[4]; 16.5 μL DSS solution (10:1 molar ratio),97.2%
same,solution stability on addition of DSS,"[4]; DSS 2:1 molar vs. peptide, isotonic, pH 7.8, m-cresol",dramatically improved
same,solution appearance,"[4]; all four sample types (0, 3.3, 6.6, 16.5 μL DSS solution), after incubation for 16 hours at 37° C.",clear
same,insulinotropic-like activity versus Val^8-GLP-1 in phosphate buffer solution (PBS formulation),[5],comparable in potency
